Results as given in publication PMC5955458, “Secreted Giardia intestinalis cysteine proteases disrupt intestinal epithelial cell junctional complexes and degrade chemokines” (Virulence, 2018).

Legend:
[1] = test system: Cc1cc(=O)oc2cc(NC(=O)[C@H](CCCNC(=N)N)NC(=O)[C@H](Cc3ccccc3)NC(=O)OCc3ccccc3)ccc12; experiment: purified protein; details: 4 mM DTT, 10 mM EDTA
[2] = test system: Cc1cc(=O)oc2cc(NC(=O)[C@H](CCCNC(=N)N)NC(=O)[C@H](CCCNC(=N)N)NC(=O)OCc3ccccc3)ccc12; experiment: purified protein; details: 4 mM DTT, 10 mM EDTA
[3] = pH 5.5, 37°C, sodium acetate buffer
[4] = pH 6, 37°C, sodium phosphate buffer
[5] = pH 6, 37°C, sodium phosphate buffer, pre-activated 120 min at pH 5.5
[6] = pH 5.5, 37°C, sodium acetate buffer, pre-activated 120 min at pH 5.5, pH 5.5

Question: For CP14019 (Giardia lamblia ATCC 50803), which Km [1, 3] is on record?
Answer: 3.17 ± 0.34 µM

Question: What about the kcat/Km [1, 3] of the same substance?
Answer: 179000 to 237000 M⁻¹ s⁻¹

Question: What about the Km [2, 3] of the same substance?
Answer: 5.11 ± 1.11 µM

Question: What about the kcat/Km [2, 3] of the same substance?
Answer: 5410 to 9840 M⁻¹ s⁻¹

Question: How did the Km [1, 4] turn out when CP16779 (Giardia lamblia ATCC 50803) was run?
Answer: 0.96 ± 0.24 µM

Question: And the kcat/Km [1, 4]?
Answer: 1.02e+06 to 2.06e+06 M⁻¹ s⁻¹

Question: And the Km [2, 4]?
Answer: 5.40 ± 0.75 µM

Question: And the kcat/Km [2, 4]?
Answer: 10500 to 14800 M⁻¹ s⁻¹

Question: Which Km [1, 5] does the source give for CP16160 (Giardia lamblia ATCC 50803) here?
Answer: 9.40 ± 1.46 µM

Question: What about the kcat/Km [1, 5] of the same substance?
Answer: 43000 to 67700 M⁻¹ s⁻¹

Question: What about the Km [2, 6] of the same substance?
Answer: 5.60 ± 1.00 µM

Question: What about the kcat/Km [2, 6] of the same substance?
Answer: 58600 to 96100 M⁻¹ s⁻¹
